Data published in PMC9342900, “Cryo-EM structures of the Synechocystis sp. PCC 6803 cytochrome b6f complex with and without the regulatory PetP subunit” (Biochemical Journal, 2022).
Blank lines part the entries; values can stand above or below the molecule they belong to.

B1: N-terminally hexa-Histidine (His)-tagged PetP (natural protein, Synechocystis sp. PCC 6803)
chain: MTIEIGQKVKVYRLRDRVSPDVVGKLGKVGVVKDFKMTDGSGIGAVVSFDDRTATWFFEDELKAI
notes: PetP, Synechocystis sp; PCC 6803, gene petP (ssr2998), codon optimized for E. coli, cloned into the NdeI and XhoI sites of pET28a(+); About 10 kDa protein; The vector pET28a(+) adds further residues between the His tag and the NdeI site; also called His-PetP; His6-tagged PetP; source: E. coli BL21(DE3), purified (HisTrap IMAC, PD-10 desalting); not shown: His6, N-terminal, kept

Tests used:
[1] = target: T1, Synechocystis cytb6f-PetP complex (Rieske ISP subunit) (Synechocystis sp. PCC 6803, UniProt P26290); test: cryo-EM structure, […] Å; assay type: binding; conditions: native co-purified
T1 construct: gene petC1; same complex as P1; with Cytochrome b6; Cytochrome b6-f complex subunit 4; Cytochrome f; Cytochrome b6-f complex subunit 5; Cytochrome b6-f complex subunit 6; Cytochrome b6-f complex subunit 7; Cytochrome b6-f complex subunit 8; Cytochrome b6f regulatory subunit PetP
T1 sequence (P26290 2-180): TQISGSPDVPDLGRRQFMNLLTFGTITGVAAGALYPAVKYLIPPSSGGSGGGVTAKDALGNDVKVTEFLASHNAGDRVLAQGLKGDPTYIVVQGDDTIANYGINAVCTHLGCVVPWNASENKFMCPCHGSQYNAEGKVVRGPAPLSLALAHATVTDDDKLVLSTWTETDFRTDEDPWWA

[2] = target: T2, Synechocystis cytb6f-PetP complex (cytochrome b6 / subunit IV core) (Synechocystis sp. PCC 6803, UniProt P27589+Q57038); test: cryo-EM structure, […] Å; assay type: binding; conditions: Qn site, one PQ per monomer near heme cn; native co-purified; with PetP
T2 construct: gene petB; native dimeric complex from Synechocystis thylakoids in GDN, cytochrome f with C-terminal Ser-Ala-Strep-tag II; reconstituted with His6-PetP from E. coli; with Cytochrome f; Cytochrome b6-f complex iron-sulfur subunit; Cytochrome b6-f complex subunit 5; Cytochrome b6-f complex subunit 6; Cytochrome b6-f complex subunit 7; Cytochrome b6-f complex subunit 8; Cytochrome b6f regulatory subunit PetP

[3] = target: T3, Synechocystis cytb6f complex (carotenoid site) (Synechocystis sp. PCC 6803, UniProt P0DXY4+P74149+P74810+Q57038); test: cryo-EM structure; HPLC of extracted pigments; assay type: binding; conditions: native co-purified; 9-cis configuration suggested
T3 construct: gene petB; same complex as P1; with Cytochrome b6-f complex subunit 4; Cytochrome f; Cytochrome b6-f complex iron-sulfur subunit; Cytochrome b6-f complex subunit 8; Cytochrome b6f regulatory subunit PetP

[4] = target: Synechocystis sp. PCC 6803 cytochrome b6f complex with C-terminally StrepII-tagged PetA, purified dimer (Synechocystis sp. PCC 6803) (UniProt P26287); test: cryo-EM structure; cytb6f without PetP, 17 uM, in GDN; 3.15 A
[5] = target: Synechocystis sp. PCC 6803 cytochrome b6f complex with C-terminally StrepII-tagged PetA, purified dimer (Synechocystis sp. PCC 6803) (UniProt P26287); test: cryo-EM structure; reconstituted cytb6f-PetP complex, 20 uM, in buffer D with GDN; 2.80 A
[6] = target: Synechocystis sp. PCC 6803 cytochrome b6f complex with C-terminally StrepII-tagged PetA, purified dimer (Synechocystis sp. PCC 6803) (UniProt P26287); test: native gel or EMSA; BN-PAGE on NativePAGE 3-12% Bis-Tris gels, Coomassie stain; purified cytb6f and cytb6f-PetP; dimer against monomer of the complex
[7] = target: T4, subunit IV of the Synechocystis cytb6f complex (Synechocystis sp. PCC 6803, UniProt P27589 1-160); test: cryo-EM structure; reconstituted cytb6f-PetP complex, 20 uM, in buffer D with GDN; 2.80 A; conditions: both partners purified
T4 construct: subunit IV, Synechocystis sp; PCC 6803, endogenous subunit of cytb6f; Stood in the structure as a subunit of m2; also called subIV; source: Synechocystis PetA-StrepII strain, purified as part of cytb6f (StrepTrap HP, SEC)
T4 sequence: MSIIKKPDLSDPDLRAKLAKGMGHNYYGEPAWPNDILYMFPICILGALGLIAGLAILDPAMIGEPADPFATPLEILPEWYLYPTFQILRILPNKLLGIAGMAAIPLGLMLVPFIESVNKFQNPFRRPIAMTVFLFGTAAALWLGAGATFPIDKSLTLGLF

[8] = target: T5, cytochrome b6 subunit of the Synechocystis cytb6f complex (Synechocystis sp. PCC 6803, UniProt Q57038 1-222); test: as above; conditions: both partners purified
T5 construct: cytochrome b6, Synechocystis sp; PCC 6803, endogenous subunit of cytb6f; Stood in the structure as a subunit of m2; source: Synechocystis PetA-StrepII strain, purified as part of cytb6f (StrepTrap HP, SEC)
T5 sequence: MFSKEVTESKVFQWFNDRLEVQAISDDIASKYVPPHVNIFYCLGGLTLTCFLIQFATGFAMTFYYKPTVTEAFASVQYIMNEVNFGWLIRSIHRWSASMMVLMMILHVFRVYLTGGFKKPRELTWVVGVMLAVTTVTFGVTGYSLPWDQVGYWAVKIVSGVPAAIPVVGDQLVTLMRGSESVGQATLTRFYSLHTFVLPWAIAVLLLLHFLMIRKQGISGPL

[9] = target: B1; test: as above; conditions: both partners purified

Molecule: [S]1[Fe][S][Fe]1 [2Fe-2S cluster]
cryo-EM structure, 2.80 Å [1]: the 2Fe-2S cluster (orange Fe and yellow S)

Molecule: CC(C)=CCC/C(C)=C/CC/C(C)=C/CC/C(C)=C/CC/C(C)=C/CC/C(C)=C/CC/C(C)=C/CC/C(C)=C/CC/C(C)=C/CC1=CC(=O)C(C)=C(C)C1=O [PQ, plastoquinone]
cryo-EM structure, 2.80 Å [2]: resolves two native PQ molecules, one bound at each Qn site within the dimer

Molecule: CC1=C(/C=C/C(C)=C/C=C/C(C)=C/C=C/C=C(C)/C=C/C=C(C)/C=C/C2=C(C)C(=O)CCC2(C)C)C(C)(C)CCC1 [echinenone]
cryo-EM structure; HPLC of extracted pigments [3]: clear density for the ketone group on the end ring of echinenone

stoichiometry N [4]: 2
stoichiometry N [5]: 2
stoichiometry N [6]: 2
Molecule: Synechocystis sp. PCC 6803 cytochrome b6f complex with C-terminally StrepII-tagged PetA, purified dimer (from UniProt P26287 45-328; Q57038 1-222; P27589 1-160; P74149 1-38; P74810 1-36; P72717 1-29)

Molecule: B1
binding result [7]: binds
binding result [8]: binds

binding result [9]: binds
B2: PetG subunit of the Synechocystis cytb6f complex (natural protein, Synechocystis sp. PCC 6803)
chain: MIEPLLLGIVLGLIPVTLAGLFVAAYLQYKRGNQFNLD
notes: PetG, Synechocystis sp; PCC 6803, endogenous subunit of cytb6f; Stood in the structure as a subunit of m2; source: Synechocystis PetA-StrepII strain, purified as part of cytb6f (StrepTrap HP, SEC)
